Laboratory results from publication PMC4745115.

Substrate: C[N+](C)(C)CCO
Assay: SSM-based electrophysiology, peak currents, proteoliposomes
Format: biochemical, Corynebacterium glutamicum
Conditions: 500 mM NaCl, 250 mM KPi pH 7.5, 22 °C

B1: BetP (Corynebacterium glutamicum ATCC 13032; G153D) (protein)
chain: MTTSDPNPKPIVEDAQPEQITATEELAGLLENPTNLEGKLADAEEEIILEGEDTQASLNWSVIVPALVIVLATVVWGIGFKDSFTNFASSALSAVVDNLGWAFILFGTVFVFFIVVIAASKFGTIRLGRIDEAPEFRTVSWISMMFAAGMGIDLMFYGTTEPLTFYRNGVPGHDEHNVGVAMSTTMFHWTLHPWAIYAIVGLAIAYSTFRVGRKQLLSSAFVPLIGEKGAEGWLGKLIDILAIIATVFGTACSLGLGALQIGAGLSAANIIEDPSDWTIVGIVSVLTLAFIFSAISGVGKGIQYLSNANMVLAALLAIFVFVVGPTVSILNLLPGSIGNYLSNFFQMAGRTAMSADGTAGEWLGSWTIFYWAWWISWSPFVGMFLARISRGRSIREFILGVLLVPAGVSTVWFSIFGGTAIVFEQNGESIWGDGAAEEQLFGLLHALPGGQIMGIIAMILLGTFFITSADSASTVMGTMSQHGQLEANKWVTAAWGVATAAIGLTLLLSGGDNALSNLQNVTIVAATPFLFVVIGLMFALVKDLSNDVIYLEYREQQRFNARLARERRVHNEHRKRELAAKRRRERKASGAGKRR
Km: 135 ± 28 µM
